What all share (assay): split reporter
The target of test [1] is NRT2.1 wild type, rBiFC fusion (Arabidopsis thaliana, UniProt O82811 1-530).
In test [2] the target is NRT2.1 S501A, rBiFC fusion (Arabidopsis thaliana, UniProt O82811 1-530, S501A).
Test [3] has as its target NRT2.1 S501D, rBiFC fusion (Arabidopsis thaliana, UniProt O82811 1-530, S501D).

NRT2.1 S501D, rBiFC fusion, sequence (O82811 whole entry S501D, the tested form may be a part): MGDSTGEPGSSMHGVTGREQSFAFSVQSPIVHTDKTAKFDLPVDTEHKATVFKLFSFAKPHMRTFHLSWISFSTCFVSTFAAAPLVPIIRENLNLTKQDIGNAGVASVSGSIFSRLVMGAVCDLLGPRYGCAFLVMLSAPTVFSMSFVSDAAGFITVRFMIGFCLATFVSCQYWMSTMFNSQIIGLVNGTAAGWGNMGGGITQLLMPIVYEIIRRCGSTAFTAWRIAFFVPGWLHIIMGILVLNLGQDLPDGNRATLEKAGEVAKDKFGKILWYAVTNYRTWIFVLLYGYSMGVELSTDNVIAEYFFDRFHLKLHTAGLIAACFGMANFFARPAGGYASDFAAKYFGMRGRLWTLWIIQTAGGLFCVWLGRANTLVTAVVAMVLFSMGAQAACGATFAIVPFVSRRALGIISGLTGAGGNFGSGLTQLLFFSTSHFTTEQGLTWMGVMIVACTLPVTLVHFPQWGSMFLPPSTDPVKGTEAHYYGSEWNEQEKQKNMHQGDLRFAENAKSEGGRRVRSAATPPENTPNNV
NRT2.1 S501A, rBiFC fusion, sequence (O82811 whole entry S501A, the tested form may be a part): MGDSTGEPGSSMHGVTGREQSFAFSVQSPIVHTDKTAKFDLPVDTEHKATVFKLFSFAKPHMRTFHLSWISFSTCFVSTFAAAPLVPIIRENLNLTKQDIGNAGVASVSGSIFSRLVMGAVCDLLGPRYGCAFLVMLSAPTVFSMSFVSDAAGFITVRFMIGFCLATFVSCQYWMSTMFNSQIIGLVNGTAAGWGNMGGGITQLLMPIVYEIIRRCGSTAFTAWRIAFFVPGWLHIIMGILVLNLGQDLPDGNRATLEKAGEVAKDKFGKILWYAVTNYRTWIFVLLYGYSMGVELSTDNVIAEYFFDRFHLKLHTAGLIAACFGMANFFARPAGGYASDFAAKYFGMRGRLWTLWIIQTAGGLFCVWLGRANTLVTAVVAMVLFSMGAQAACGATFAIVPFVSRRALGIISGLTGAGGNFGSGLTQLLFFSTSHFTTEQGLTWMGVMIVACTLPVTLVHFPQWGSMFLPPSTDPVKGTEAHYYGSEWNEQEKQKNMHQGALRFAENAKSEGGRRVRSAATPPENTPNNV
NRT2.1 wild type, rBiFC fusion, sequence (O82811 whole entry, the tested form may be a part): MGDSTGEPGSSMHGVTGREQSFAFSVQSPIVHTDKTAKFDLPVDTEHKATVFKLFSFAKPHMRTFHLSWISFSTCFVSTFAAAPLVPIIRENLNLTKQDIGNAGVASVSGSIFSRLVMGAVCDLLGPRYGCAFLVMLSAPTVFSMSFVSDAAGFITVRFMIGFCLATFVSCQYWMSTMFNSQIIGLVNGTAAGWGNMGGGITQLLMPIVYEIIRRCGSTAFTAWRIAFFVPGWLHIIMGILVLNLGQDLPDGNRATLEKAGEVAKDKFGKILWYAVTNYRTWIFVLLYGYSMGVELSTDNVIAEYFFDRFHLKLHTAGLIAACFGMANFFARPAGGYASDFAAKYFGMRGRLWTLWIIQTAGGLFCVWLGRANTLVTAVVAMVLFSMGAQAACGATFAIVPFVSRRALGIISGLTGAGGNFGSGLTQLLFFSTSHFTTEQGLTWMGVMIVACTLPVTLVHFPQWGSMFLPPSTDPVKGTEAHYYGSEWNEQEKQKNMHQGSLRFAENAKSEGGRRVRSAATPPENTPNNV

B1: NAR2.1, rBiFC fusion (natural protein, Arabidopsis thaliana, UniProt Q9FGS5 23-210, looked up)
chain: AEKVRLFKELDKGALDVTTKPSREGPGVVLDAGKDTLNITWTLSSIGSKREAEFKIIKVKLCYAPPSQVDRPWRKTHDELFKDKTCPHKIIAKPYDKTLQSTTWTLERDIPTGTYFVRAYAVDAIGHEVAYGQSTDDAKKTNLFSVQAISGRHASLDIASICFSVFSVVALVVFFVNEKRKAKIEQSK
Regarding B1, the results for the “YFP fluorescence as percent of RFP fluorescence (rBiFC)” value in test [1], in test [2] and in test [3] were ~40 % of RFP fluorescence, ~50 % of RFP fluorescence and ~50 % of RFP fluorescence, respectively.

These data come from publication doi:10.1101/583542 (bioRxiv, 2019).
